Experiment [1] concerns the target T1, recombinant soluble human IL-6 receptor (SR344) (human, UniProt P08887 20-344, biotinylated (sites not given) where immobilized via streptavidin or used in phage ELISA).
T1 construct: also called soluble IL-6 receptor; membrane-type IL-6 receptor (when biotinylated and immobilized on the chip)
T1 sequence (looked up): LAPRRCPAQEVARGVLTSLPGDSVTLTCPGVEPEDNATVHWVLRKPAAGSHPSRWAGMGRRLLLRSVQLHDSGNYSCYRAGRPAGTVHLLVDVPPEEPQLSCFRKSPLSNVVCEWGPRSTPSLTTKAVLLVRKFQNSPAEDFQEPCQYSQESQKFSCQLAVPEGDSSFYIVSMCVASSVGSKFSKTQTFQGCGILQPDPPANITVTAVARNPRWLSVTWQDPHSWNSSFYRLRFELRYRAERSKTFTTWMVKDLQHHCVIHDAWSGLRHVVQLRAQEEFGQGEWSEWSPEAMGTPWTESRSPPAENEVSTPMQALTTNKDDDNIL
Kind of experiment: SPR Biacore T100, biotinylated SR344 on streptavidin chip (model of membrane-type IL-6 receptor), antibody as analyte, bound at pH 7.4, dissociation at pH 5.8, 37 C. As for the experimental part:
(§1) Binding to the membrane-type IL-6 receptor was evaluated by evaluating binding to the IL-6 receptor immobilized on a sensor chip. SR344 was biotinylated in accordance with a method known among persons with ordinary skill in the art, and the biotinylated SR344 was immobilized on the sensor chip via streptavidin using the affinity between streptavidin and biotin. All the measurements were carried out at 37° C. The mobile phase buffer was 10 mM MES (pH 5.8), 150 mM NaCl and 0.05% TWEEN® 20 (polyoxyethelene sorbitan monolaurate).
(§2) The pH-dependently-binding clones were injected under the condition of pH 7.4 to allow them to bind to SR344, and then, the pH-dependent dissociation of each clone at the pH of the mobile phase, pH 5.8, was observed. The results are shown in FIG. 21 (results for Fv1-M71, Fv1-M73, Fv3-M71, and Fv3-M73 are shown in FIG. 21, while results for other clones are shown in FIGS. 17 and 19). Analyses were carried out in the same manner as in Example 10 and the pH dependencies of the dissociation rate constants of all of the eleven types of clones are shown in Table 12.

The target in experiment [2] is T1, recombinant soluble human IL-6 receptor …. Description: SPR Biacore T100, antibody captured by anti-IgG gamma chain F(ab)2, SR344 analyte, pH 7.4, 37 C. How it is done: (§3) Kinetic analyses of antigen-antibody reactions at pH 7.4 were carried out on the four types of antibodies, i.e., the humanized PM1 antibody (wild type: WT), and […], H3pI/L73-IgG1, Fv2-IgG1, and Fv4-IgG1 constructed in Examples 2 and 10, by using a Biacore T100™ surface plasmon resonance system (GE Healthcare) (buffer: 10 mM MES (pH 7.4), 150 mM NaCl, 0.05% TWEEN® 20 (polyoxyethelene sorbitan monolaurate)). Each antibody was bound on a sensor chip on which an anti-IgG γ chain specific F(ab)₂ (Pierce) was immobilized by amine coupling, and then, SR344 adjusted to a concentration of 9.8 to 40 nM was injected thereto as an analyte. The association to and dissociation from SR344 were observed on a real-time basis for the pH-dependent-binding clones. All the measurements were carried out at 37° C. Association rate constants kₐ (1/Ms) and dissociation rate constants kd (1/s) were calculated using Biacore T100™ Evaluation Software (GE Healthcare), and dissociation constants KD (M) were calculated on the basis of those values (Table 7).
(§4) The association to and dissociation from SR344 were observed on a real-time basis using the same method as Example 10 for the eleven types of antibodies, humanized PM1 antibody (wild type: WT) and H3pI/L73-IgG1, Fv1-M71, Fv1-M73, Fv2-IgG1, Fv3-M71, Fv3-M73, Fv4-IgG1, Fv4-IgG2, Fv4-M58, and Fv4-M73, constructed as described above. The association rate constants kₐ (1/Ms) and dissociation rate constants kd. (1/s) were calculated by analysis in the same manner, and the dissociation constants KD (M) were calculated on the basis of those values (Table 11).

For experiment [3] the target is unchanged. Description: SPR Biacore T100, biotinylated SR344 on streptavidin chip (model of membrane-type IL-6 receptor), antibody as analyte, bound at pH 7.4, dissociation at pH 7.4, 37 C. As for the experimental part:
as §1, §2

Experiment [4] shares this target. Description: SPR Biacore T100, biotinylated SR344 on streptavidin chip (model of membrane-type IL-6 receptor), antibody as analyte, 37 C. As for the experimental part:
as §1, §2

The target is the same in experiment [5]. Kind of experiment: SPR Biacore T100, biotinylated SR344 on streptavidin chip (model of membrane-type IL-6 receptor), antibody as analyte, bound at pH 7.4, dissociation at pH 5.8, 37 C. How it is done: as §1, §2
The source holds these as a separate data set.

The target is the same in experiment [6]. Description: SPR Biacore T100, biotinylated SR344 on streptavidin chip (model of membrane-type IL-6 receptor), antibody as analyte, bound at pH 7.4, dissociation at pH 7.4, 37 C. As for the experimental part: as §1, §2
This is another data set of the same source.

The target is the same in experiment [7]. Kind of experiment: SPR Biacore T100, biotinylated SR344 on streptavidin chip (model of membrane-type IL-6 receptor), antibody as analyte, 37 C. How it is done:
as §1, §2
This is another data set of the same source.

For experiment [8] the target is unchanged. Description: SPR Biacore T100, antibody captured by anti-IgG gamma chain F(ab)2, SR344 analyte, pH 7.4, 37 C. How it is done:
as §3, §4
The source holds these as a separate data set.

For experiment [9] the target is unchanged. Description: SPR Biacore T100, biotinylated SR344 on streptavidin chip (model of membrane-type IL-6 receptor), antibody 0.25 ug/mL as analyte, 37 C. As for the experimental part:
as §1, §2

The target is the same in experiment [10]. Kind of experiment: SPR Biacore T100, biotinylated SR344 on streptavidin chip (model of membrane-type IL-6 receptor), antibody 0.25 ug/mL as analyte, bound at pH 7.4, dissociation at pH 5.8, 37 C. As for the experimental part: as §1, §2
Experiment [11] has the same target. Description: SPR Biacore T100, biotinylated SR344 on streptavidin chip (model of membrane-type IL-6 receptor), antibody 0.25 ug/mL as analyte, bound at pH 7.4, dissociation at pH 7.4, 37 C.
Experiment [12] shares this target. Kind of experiment: SPR Biacore T100, antibody captured by anti-IgG gamma chain F(ab)2, SR344 analyte, pH 7.4, 37 C. As for the experimental part:
as §3
This is another data set of the same source.

This is an account of results in patent US20180282719A1 (published 2018).

Changes are numbered by the printed parent chain. Where two headings read alike, the source gives them in different places.

B1: Fv4-M58 (antibody)
heavy: QVQLQESGPGLVKPSETLSLTCAVSGHSISHDHAWSWVRQPPGEGLEWIGFISYSGITNYNPSLQGRVTISRDNSKNTLYLQMNSLRAEDTAVYYCARSLARTTAMDYWGEGTLVTVSSASTKGPSVFPLAPSSKSTSGGTAALGCLVKDYFPEPVTVSWNSGALTSGVHTFPAVLQSSGLYSLSSVVTVPSSNFGTQTYTCNVDHKPSNTKVDKTVERKSCVECPPCPAPPVAGPSVFLFPPKPKDTLMISRTPEVTCVVVDVSQEDPEVQFNWYVDGVEVHNAKTKPREEQFNSTFRVVSVLTVVHQDWLNGKEYKCKVSNKGLPAPIEKTISKTKGQPREPQVYTLPPSQEEMTKNQVSLTCLVKGFYPSDIAVEWESNGQPENNYKTTPPMLDSDGSFFLYSKLTVDKSRWQEGNVFSCSVMHEALHNHYTQKSLSLSP
light: DIQMTQSPSSLSASVGDSVTITCQASTDISSHLNWYQQKPGKAPELLIYYGSHLLSGVPSRFSGSGSGTDFTFTISSLEAEDAATYYCGQGNRLPYTFGQGTKVEIERTVAAPSVFIFPPSDEQLKSGTASVVCLLNNFYPREAKVQWKVDNALQSGNSQESVTEQDSKDSTYSLSSTLTLSKADYEKHKVYACEVTHQGLSSPVTKSFNRGEC
notes: VH3-M58 / VL3-CK
For the molecule B1, the koff was 0.0095 s⁻¹ in [1]; 0.0011 s⁻¹ in [2]; 0.00054 s⁻¹ in experiment [3]; 0.0095 s⁻¹ in [5]; 0.00054 s⁻¹ in experiment [6]; 0.0011 s⁻¹ in experiment [8]. Further, the Kd in experiment [2] and in experiment [8] was 1.4 nM each time. Moreover, the kon in [2] and in experiment [8] was 830000 M⁻¹ s⁻¹ each time. Besides, the “kd (pH 5.8)/kd (pH 7.4)” value in experiment [4] and in [7] was 17.6 each time.

B2: Fv4-M73 (antibody)
heavy: B1 heavy with N432A
light: B1 light
notes: VH3-M73 / VL3-CK
As for B2, the koff came to 0.0051 s⁻¹ in experiment [1]; 0.001 s⁻¹ in experiment [2]; 0.00051 s⁻¹ in experiment [3]; 0.0051 s⁻¹ in [5]; 0.00051 s⁻¹ in experiment [6]; 0.001 s⁻¹ in [8]. Moreover, the Kd in experiment [2] and in [8] was 1.4 nM each time. Also, the kon in experiment [2] and in [8] was 750000 M⁻¹ s⁻¹ each time. Moreover, the “kd (pH 5.8)/kd (pH 7.4)” value in experiment [4] and in experiment [7] was 10.1 throughout.

B3: Fv4-IgG2 (antibody)
heavy: B1 heavy with S133C, K135R, G139E, G140S, S221C, Q266H, Q353R, E417Q
light: B1 light
notes: VH3-IgG2deltaGK / VL3-CK; also called Fv4-IgG2deltaGK
For B3, the koff was found to be 0.018 s⁻¹ in experiment [1]; 0.0012 s⁻¹ in experiment [2]; 0.001 s⁻¹ in [3]; 0.018 s⁻¹ in [5]; 0.001 s⁻¹ in experiment [6]; 0.0012 s⁻¹ in experiment [8]. Also, the Kd in [2] and in [8] was 1.3 nM in each case. The kon in experiment [2] and in experiment [8] was 960000 M⁻¹ s⁻¹ each time. Besides, the “kd (pH 5.8)/kd (pH 7.4)” value in [4] and in experiment [7] was 17 each time.

B4: Fv2-IgG1 (antibody, V domains shown)
VH: QVQLQESGPGLVKPSETLSLTCAVSGYSISHDHAWSWVRQPPGEGLEWIGHISYSGITNYNPHLQDRVTISRDTSKNQFSLKLSSVTAADTAAYYCARFLARITAHDHWGEGTLVTVSS
VL: DIQMTQSPSSLSASVGDSVTITCQASQDISSHLNWYQQKPGKAPELLIYYGSHLHSGVPSRFSGSGSGTDFTFTISSLEAEDAATYYCGQGNRLPYTFGQGTKVEIE
notes: VH1-IgG1 as H chain and L82 as L chain
For the molecule B4, the “kd (pH 5.8)/kd (pH 7.4)” value in experiment [9] and in [7] was 7.18 in each case. For the same molecule, the koff was 0.00034 s⁻¹ in experiment [3]; 0.0024 s⁻¹ in experiment [5]; 0.0024 s⁻¹ in experiment [10]; 0.00034 s⁻¹ in experiment [11]; 0.00077 s⁻¹ in [8]; 0.00077 s⁻¹ in experiment [12]. For the same molecule, the Kd in experiment [8] and in experiment [12] was 2 nM throughout. In addition, the kon in experiment [8] and in experiment [12] was 390000 M⁻¹ s⁻¹ each time.
